Measured values from patent publication US20240270821A1, “GIP/GLP1/GCG TRI-RECEPTOR AGONISTS AND USES THEREOF” (priority 2023, published 2024).
Starred links: 1 amine or outer side, 2 acyl side, 3 side chain; linkers in the order of their positions; H or OH if unused. Non-standard residues stand in square brackets, D forms with d. Groups on a side chain read outwards from the residue. No end group written: not given here. *: point of attachment. C18 diacid = O=C(O)CCCCCCCCCCCCCCCCC(=O)*; γGlu = O=C(O)[C@H](CCC(=O)[*:2])N[*:1]; 4Pal = N[C@@H](Cc1ccncc1)C(=O)O; αMeL = CC(C)C[C@](C)(N)C(=O)O; Dab = NCC[C@H](N)C(=O)O; AEEA = NCCOCCOCC(=O)O; Aib = CC(C)(N)C(=O)O

T1: human GIP receptor (human) (UniProt P48546)
T1 sequence (looked up): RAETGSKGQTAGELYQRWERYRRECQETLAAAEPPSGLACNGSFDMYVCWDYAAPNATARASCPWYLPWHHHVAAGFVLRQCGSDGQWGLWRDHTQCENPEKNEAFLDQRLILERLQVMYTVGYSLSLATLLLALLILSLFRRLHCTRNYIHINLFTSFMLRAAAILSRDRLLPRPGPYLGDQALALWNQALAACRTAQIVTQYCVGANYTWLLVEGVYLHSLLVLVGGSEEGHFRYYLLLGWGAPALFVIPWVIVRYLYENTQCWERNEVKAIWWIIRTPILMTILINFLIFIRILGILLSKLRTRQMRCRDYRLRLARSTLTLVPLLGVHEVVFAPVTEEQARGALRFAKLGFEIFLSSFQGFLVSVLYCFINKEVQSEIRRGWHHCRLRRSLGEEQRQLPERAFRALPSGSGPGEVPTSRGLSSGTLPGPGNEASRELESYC


Legend:
Experiment in all cases: cell-based or functional assay
[1] = molecular target: hGLP-1R (Homo sapiens, UniProt P43220)
Sequence of hGLP-1R (P43220 24-463): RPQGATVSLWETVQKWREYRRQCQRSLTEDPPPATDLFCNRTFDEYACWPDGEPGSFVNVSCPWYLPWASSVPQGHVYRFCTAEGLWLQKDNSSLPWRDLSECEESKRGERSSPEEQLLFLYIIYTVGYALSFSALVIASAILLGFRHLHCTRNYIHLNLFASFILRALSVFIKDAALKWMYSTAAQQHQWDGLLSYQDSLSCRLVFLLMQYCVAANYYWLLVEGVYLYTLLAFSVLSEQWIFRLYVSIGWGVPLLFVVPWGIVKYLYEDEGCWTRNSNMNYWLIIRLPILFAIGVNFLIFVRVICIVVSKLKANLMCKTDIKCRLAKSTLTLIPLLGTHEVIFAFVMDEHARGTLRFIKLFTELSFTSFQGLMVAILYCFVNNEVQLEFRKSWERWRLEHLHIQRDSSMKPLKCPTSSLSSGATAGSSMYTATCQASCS

[2] = molecular target: T1, human GIP receptor (human)
[3] = molecular target: human GLP-1R (SNAP-GLP-1R expressed in HEK293 cells) (human) (UniProt P43220)
Sequence of human GLP-1R (SNAP-GLP-1R expressed in HEK293 cells) (human) (P43220 24-463): as above

[4] = molecular target: human glucagon receptor (human) (UniProt P47871)
Sequence of human glucagon receptor (human) (P47871 26-477): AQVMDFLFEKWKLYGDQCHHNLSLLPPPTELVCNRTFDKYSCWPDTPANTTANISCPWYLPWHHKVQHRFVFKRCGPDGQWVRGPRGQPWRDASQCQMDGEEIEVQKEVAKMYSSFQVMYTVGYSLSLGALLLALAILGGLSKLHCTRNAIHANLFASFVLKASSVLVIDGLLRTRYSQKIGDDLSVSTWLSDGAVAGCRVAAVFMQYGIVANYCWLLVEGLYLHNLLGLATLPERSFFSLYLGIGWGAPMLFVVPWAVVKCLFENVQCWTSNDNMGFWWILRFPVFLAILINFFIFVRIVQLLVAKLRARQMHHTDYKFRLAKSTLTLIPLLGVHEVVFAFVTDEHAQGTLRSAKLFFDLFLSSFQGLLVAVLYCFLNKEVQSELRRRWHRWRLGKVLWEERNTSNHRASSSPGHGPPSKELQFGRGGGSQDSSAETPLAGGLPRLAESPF

Binder	Relative cAMP EC50, nM (0.1% casein) [1]	cAMP Rel EC50, nM (1% HSA) [1]	Relative cAMP EC50, nM (0.1% casein) [2]	cAMP Rel EC50, nM (1% HSA) [2]	GLP1R Internalization EC50 [3]	Internalization % TOP [3]	Relative cAMP EC50, nM (0.1% casein) [4]	cAMP Rel EC50, nM (1% HSA) [4]	Relative cAMP EC50 [1]	Relative cAMP EC50 [2]	Relative cAMP EC50 [4]
Y[Aib]QGTFTSD[4Pal]S[Dab][αMeL]LDKK([AEEA-γGlu-C18 diacid])AQ[Aib]AFIEYLIE[Aib]GESSGAPPPSGS-NH2 [Example 188]	3.43 nM	436 nM	0.193 nM	43.8 nM	44.7 nM	40.2%	10.8 nM	2920 nM	–	–	–
YXQGTFTSDXSRXLDKKAQXAFIEYLIEXGESSGAPPPSGS (synthetic construct; SITE 2: note = 2-Aminoisobutyric Acid; SITE 10: note = 3-(4-Pyridyl)-L-alanine; SITE 13: note = alpha-methyl-leucine; SITE 17: note = Lysine is chemically modified through conjugation of the epsilon-amino group of the Lysine side chain with (2-[2-(2-Amino-ethoxy)-ethoxy]-acetyl)) [Example 187]	1.11 nM	178 nM	0.111 nM	15.6 nM	17.2 nM	57%	14.8 nM	2970 nM	–	–	–
YXQGTFTSDFSXXLDKKAQXAFIEWLLEGGHSSGAPPPSGE (synthetic construct; SITE 2: note = 2-Aminoisobutyric Acid; SITE 12: note = L-ornithine; SITE 13: note = alpha-methyl-leucine; SITE 17: note = Lysine is chemically modified through conjugation of the epsilon-amino group of the Lysine side chain with (2-[2-(2-Amino-ethoxy)-ethoxy]-acetyl)2-(gamma-Glu)) [Example 169]	6.17 nM	216 nM	0.209 nM	21.5 nM	178 nM	49.4%	11.7 nM	439 nM	–	–	–
YXQGTFTSDFSXXLDKKAQXAFIEYLLEXGXSSGAPPPSGE (synthetic construct; SITE 2: note = 2-Aminoisobutyric Acid; SITE 12: note = L-ornithine; SITE 13: note = alpha-methyl-leucine; SITE 17: note = Lysine is chemically modified through conjugation of the epsilon-amino group of the Lysine side chain with (2-[2-(2-Amino-ethoxy)-ethoxy]-acetyl)2-(gamma-Glu)) [Example 189]	4.46 nM	423 nM	0.0695 nM	22.2 nM	103 nM	45.8%	6.28 nM	853 nM	–	–	–
YXQGTFTSDFSXXLDKKAQXAFIEYLLEXGPSSGAPPPSGS (synthetic construct; SITE 2: note = 2-Aminoisobutyric Acid; SITE 12: note = L-ornithine; SITE 13: note = alpha-methyl-leucine; SITE 17: note = Lysine is chemically modified through conjugation of the epsilon-amino group of the Lysine side chain with (2-[2-(2-Amino-ethoxy)-ethoxy]-acetyl)-(gamma-Glu)) [Example 192]	9.77 nM	719 nM	0.142 nM	9.86 nM	115 nM	48.7%	4.18 nM	560 nM	–	–	–
YXQGTFTSDFSXXLDKKAQXAFIEYLLEAGPSSGAPPPSGT (not fully specified; acylated; synthetic construct; SITE 2: note = 2-Aminoisobutyric Acid; SITE 12: note = L-ornithine; SITE 13: note = alpha-methyl-leucine; SITE 17: note = Lysine is chemically modified through conjugation of the epsilon-amino group of the Lysine side chain with (gamma-Glu)3-CO-(CH2)16-CO2H; SITE 20: note = 2-Am) [Example 205]	–	234 nM	–	24.4 nM	49.4 nM	67.7%	–	397 nM	2.71 nM	0.16 nM	8.98 nM
YXQGTFTSDFSXXLDKKAQXAFIEYLLEXGXSSGAPPPSGS (synthetic construct; SITE 2: note = 2-Aminoisobutyric Acid; SITE 12: note = L-ornithine; SITE 13: note = alpha-methyl-leucine; SITE 17: note = Lysine is chemically modified through conjugation of the epsilon-amino group of the Lysine side chain with (2-[2-(2-Amino-ethoxy)-ethoxy]-acetyl)2-(gamma-Glu)) [Example 183]	5.03 nM	295 nM	0.0759 nM	13.7 nM	100 nM	45.4%	3.83 nM	504 nM	–	–	–
YXQGTFTSDFSXXLDKKAQXAFIEYLLEAGPSSGAPPPSGS (Aib, Orn, αMeL, D-Ala, acylated Lys, C-terminal amide; synthetic construct; SITE 2: note = 2-Aminoisobutyric Acid; SITE 12: note = L-ornithine; SITE 13: note = alpha-methyl-leucine; SITE 17: note = Lysine is chemically modified through conjugation of the epsilon-amino group of the Lysine side chain with (2-[2-(2-Amino-ethoxy)-ethoxy]-acetyl)-(gamma-Glu)) [Example 209]	–	–	–	–	83.1 nM	41.2%	–	–	1.78 nM	0.129 nM	3.08 nM
YXQGTFTSDFSXXLDKKAQXAFIEYLLEXGHSSGAPPPSGS (synthetic construct; SITE 2: note = 2-Aminoisobutyric Acid; SITE 12: note = L-ornithine; SITE 13: note = alpha-methyl-leucine; SITE 17: note = Lysine is chemically modified through conjugation of the epsilon-amino group of the Lysine side chain with (2-[2-(2-Amino-ethoxy)-ethoxy]-acetyl)2-(gamma-Glu)) [Example 181]	4.39 nM	365 nM	0.133 nM	12.7 nM	116 nM	47.5%	6.25 nM	772 nM	–	–	–
YXQGTFTSDFSXXLDKKAQXAFIEWLLEGGTSSGAPPPSGE (synthetic construct; SITE 2: note = 2-Aminoisobutyric Acid; SITE 12: note = L-ornithine; SITE 13: note = alpha-methyl-leucine; SITE 17: note = Lysine is chemically modified through conjugation of the epsilon-amino group of the Lysine side chain with (2-[2-(2-Amino-ethoxy)-ethoxy]-acetyl)-(gamma-Glu)) [Example 175]	4 nM	386 nM	0.218 nM	29.6 nM	116 nM	49.2%	4.92 nM	579 nM	–	–	–
YXQGTFTSDFSXXLDKKAQXAFIEWLLEGGTSSGAPPPSGT (synthetic construct; SITE 2: note = 2-Aminoisobutyric Acid; SITE 12: note = L-ornithine; SITE 13: note = alpha-methyl-leucine; SITE 17: note = Lysine is chemically modified through conjugation of the epsilon-amino group of the Lysine side chain with (2-[2-(2-Amino-ethoxy)-ethoxy]-acetyl)-(gamma-Glu)) [Example 177]	2.97 nM	483 nM	0.213 nM	34.8 nM	79.4 nM	44%	4.22 nM	758 nM	–	–	–
